Results reported in patent publication US20210155689A1 (SHANGHAI PHARMAEXPLORER, published 2021).

Legend:
[1] = target: T1, monkey LAG-3 on cells (HEK293-cLAG-3 stable cell line) (monkey, UniProt P18627 24-525 (human entry)); assay: FACS, HEK293-cLAG-3, antibody 0.320 nM
T1 construct: Full-length monkey (Chinese monkey) LAG-3 gene expressed on HEK293 cells
T1 chain: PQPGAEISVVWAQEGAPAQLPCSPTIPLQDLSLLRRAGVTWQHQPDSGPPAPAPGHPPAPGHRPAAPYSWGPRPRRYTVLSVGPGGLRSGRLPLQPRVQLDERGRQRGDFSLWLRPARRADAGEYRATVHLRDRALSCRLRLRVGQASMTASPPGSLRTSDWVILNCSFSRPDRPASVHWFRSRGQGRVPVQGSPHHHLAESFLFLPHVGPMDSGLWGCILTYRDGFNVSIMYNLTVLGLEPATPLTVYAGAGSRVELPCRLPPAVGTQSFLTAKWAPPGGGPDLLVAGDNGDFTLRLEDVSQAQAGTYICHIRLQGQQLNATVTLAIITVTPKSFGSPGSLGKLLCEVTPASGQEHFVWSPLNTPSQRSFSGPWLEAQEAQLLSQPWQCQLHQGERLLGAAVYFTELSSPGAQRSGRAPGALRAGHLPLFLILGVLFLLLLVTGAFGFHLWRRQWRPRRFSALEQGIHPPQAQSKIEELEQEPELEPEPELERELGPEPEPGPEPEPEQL
Text: (§1) The pIRES plasmid with the monkey-derived full-length gene was transfected into the HEK293 cell line to construct a HEK293 stable cell line containing monkey LAG-3 (herein referred to as HEK293-cLAG-3 stable cell line). The HEK293-hLAG-3 stable cell line and HEK293-cLAG-3 stable cell line were expanded in a T-75 cell culture flask to a 90% confluence. The medium was aspirated, and the cells were washed with HBSS (Hanks' Balanced Salt Solution) 1-2 times, then treated with a enzyme-free cell dissociation fluid (Versene solution: Life technology) and the cells were collected. The cells were washed with HBSS buffer for 1-2 times. After counted, the cells were diluted with HBSS to 1-2×10⁶ cells per ml, added with 1% goat serum blocking solution, incubated on ice for 20-30 minutes, and then washed with HBSS for 2 times by centrifugation. The collected cells were suspended in the FACS buffer (HBSS+1% BSA) to 2×10⁶ cells/ml, added as 100 microliters per well to a 96-well FACS reaction plate, added with 100 microliters per well of the antibody sample to be tested, incubated on ice for 1-2 hours. The plate was washed twice with the FACS buffer by centrifugation, added with 100 microliters of fluorescent (Alexa 488)-labeled secondary antibodies per well, and incubated on ice for 0.5-1.0 hours. The plate was washed 2-3 times with FACS buffer by centrifugation, added with 100 μl fixative solution (4% Paraformaldehyde) per well to suspend the cells. 5-10 minutes later, it was washed 1-2 times with FACS buffer by centrifugation. The cells were suspended with 100 microliters of FACS buffer, FACS (FACSCalibur, BD) was used for detection and the results were analyzed.

[2] = target: T2, monkey LAG-3 (full length, on the cell surface) (monkey, UniProt P18627 24-525 (human entry)); assay: FACS, HEK293-cLAG-3; 0.320 nM
T2 construct: also called HEK293-cLAG-3; monkey LAG-3 protein on the cell surface
T2 chain: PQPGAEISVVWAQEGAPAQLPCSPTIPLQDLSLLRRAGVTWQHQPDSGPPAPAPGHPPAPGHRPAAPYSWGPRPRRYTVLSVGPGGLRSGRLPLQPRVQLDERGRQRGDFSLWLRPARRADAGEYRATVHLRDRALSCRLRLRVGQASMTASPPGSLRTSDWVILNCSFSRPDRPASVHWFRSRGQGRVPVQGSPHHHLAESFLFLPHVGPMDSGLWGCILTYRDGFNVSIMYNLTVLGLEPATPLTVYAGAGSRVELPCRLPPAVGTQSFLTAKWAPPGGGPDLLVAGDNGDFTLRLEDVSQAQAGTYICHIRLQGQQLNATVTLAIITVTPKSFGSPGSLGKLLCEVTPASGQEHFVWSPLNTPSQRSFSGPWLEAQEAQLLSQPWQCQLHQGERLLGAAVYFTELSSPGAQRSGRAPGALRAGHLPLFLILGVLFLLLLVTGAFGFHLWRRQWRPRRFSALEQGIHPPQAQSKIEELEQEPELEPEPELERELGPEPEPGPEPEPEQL
Text: as §1

[3] = target: T3, human LAG-3 protein with hFc tag (hLAG-3-hFc protein) (human, UniProt P18627 23-450); assay: FACS, blocks LAG-3-hFc binding to MHC II on Raji; 0.000 nM
T3 construct: also called immunogen 1; LAG-3 extracellular domain protein; not shown: human IgG Fc fragment (hFc) of the pCpC vector
T3 sequence: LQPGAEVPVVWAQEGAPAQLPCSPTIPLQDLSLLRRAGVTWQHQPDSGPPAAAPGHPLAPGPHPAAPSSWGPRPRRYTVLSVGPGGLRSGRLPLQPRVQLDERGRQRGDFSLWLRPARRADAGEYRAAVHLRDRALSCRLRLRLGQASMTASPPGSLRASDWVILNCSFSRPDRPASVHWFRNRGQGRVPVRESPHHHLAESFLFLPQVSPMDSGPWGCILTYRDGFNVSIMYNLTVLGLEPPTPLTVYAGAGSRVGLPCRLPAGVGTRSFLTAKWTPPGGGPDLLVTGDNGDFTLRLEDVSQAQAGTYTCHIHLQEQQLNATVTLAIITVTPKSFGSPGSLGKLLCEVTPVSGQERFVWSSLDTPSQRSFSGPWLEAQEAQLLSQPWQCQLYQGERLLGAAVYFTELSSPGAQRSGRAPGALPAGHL
Description: The FACS reaction plate incubating the Raji cells was centrifuged to discard the supernatant. The above mixture was added as 100 μl per well to Raji cells and incubated on ice for 1-2 hours. The plate was washed twice with blocking solution (PBS, 2% fetal bovine serum) by centrifugation, added with 100 microliters of fluorescent (Alexa 488)-labeled secondary antibodies per well, and incubated on ice for 1.0 hours. The plate was washed 2-3 times by centrifugation with blocking solution (PBS, 2% fetal bovine serum), added with 100 microliters of PBS per well to suspend cells, and detected using FACS (FACS Calibur, BD) and the results were analyzed. Wherein, the IgG control was murine IgG, and the data in the table is the inhibition rate (%).

B1: 556F6B8 mouse-human chimeric antibody (antibody, V domains shown)
VH: RVQLKQSGPGLVQPSQSLSITCTVSGFSLIKYGVHWVRQSPGEGLEWLGVIWRGGITDYNAAFMSRLSITKDNSKSQVFFKMNSLQADDTAIYYCAKWDGPLAMDYWGQGTSVTVSS
VL: DIVMTQSHKFLSTSVGDRVSITCKASQDVGTTVAWYQQKPGQSPKLLIYWASTRHTGVPDRFTGSGSGTDFTLTISNVQSEDLADYFCQQYSSYPYTFGGGTKLEIK
notes: also called mAb123-556F6B8; 556F8B8
With B1 the Mean fluorescence intensity [1] was 8.37.

B2: 556F6B8 (mouse antibody purified from hybridoma) (antibody, V domains shown)
VH: RVQLKQSGPGLVQPSQSLSITCTVSGFSLIKYGVHWVRQSPGEGLEWLGVIWRGGITDYNAAFMSRLSITKDNSKSQVFFKMNSLQADDTAIYYCAKWDGPLAMDYWGQGTSVTVSS
VL: DIVMTQSHKFLSTSVGDRVSITCKASQDVGTTVAWYQQKPGQSPKLLIYWASTRHTGVPDRFTGSGSGTDFTLTISNVQSEDLADYFCQQYSSYPYTFGGGTKLEIK
notes: also called mAb123-556F6B8
In the case of B2, the Mean fluorescence intensity [2] is reported as 9.8 MFI and the “Inhibition rate (%)” value [3] is reported as -10.7%.

B3: 405B8H3 (mouse antibody purified from hybridoma) (antibody, V domains shown)
VH: QVQLQQSGAELVRPGASVTLSCKASGYTFTDYEMHWVKQTPVHGLEWIGATDPETGNSAYNQKFKGKAIMTADKSSSTAYMELRSLTSEDSAVYYCISTGWNDWGQGTSLTVSS
VL: DIKMTQSPSSMYASLGERVTITCKASQDINSYLSWFQQKPGKSPKTLIYRADRLLDGVPSRFSGSGSGQDYSLTISSLEYGDMGIYYCLQYDEFPYTFGGGTKLEIK
notes: also called mAb103-405B8H3; 405B81-13
With B3 the Mean fluorescence intensity [2] was 8 MFI and the “Inhibition rate (%)” value [3] was 0.3%.

B4: 105F1E10 mouse-human chimeric antibody (antibody, V domains shown)
VH: EVQLQQSGPELVKPGASVKMSCRASGYTFTDFKMHWMKQSHGKSLEWIGYIAPNNGGTAYNQKFRGKATLTVNESSNTAYMELRSLTSEDSAVYYCVDWDDVDYWGQGTTLTVSS
VL: DIKMTQSPSSMYASLGERVTITCKASQDINSYLSWFQQKSGKSPKTLIYRANRLVDGVPSRFSGSGSGQDYSLTISSLEYEDMGIYYCLQYVEFPLTFGAGTKLELK
notes: also called mAb009-105F1E10
B4 gave a Mean fluorescence intensity [1] of 5.72.

B5: 405B8H3 mouse-human chimeric antibody (antibody, V domains shown)
VH: QVQLQQSGAELVRPGASVTLSCKASGYTFTDYEMHWVKQTPVHGLEWIGATDPETGNSAYNQKFKGKAIMTADKSSSTAYMELRSLTSEDSAVYYCISTGWNDWGQGTSLTVSS
VL: DIKMTQSPSSMYASLGERVTITCKASQDINSYLSWFQQKPGKSPKTLIYRADRLLDGVPSRFSGSGSGQDYSLTISSLEYGDMGIYYCLQYDEFPYTFGGGTKLEIK
notes: also called mAb103-405B8H3
Binder B5 has a Mean fluorescence intensity [1] of 10.3.

B6: 105F1E10 (mouse antibody purified from hybridoma) (antibody, V domains shown)
VH: EVQLQQSGPELVKPGASVKMSCRASGYTFTDFKMHWMKQSHGKSLEWIGYIAPNNGGTAYNQKFRGKATLTVNESSNTAYMELRSLTSEDSAVYYCVDWDDVDYWGQGTTLTVSS
VL: DIKMTQSPSSMYASLGERVTITCKASQDINSYLSWFQQKSGKSPKTLIYRANRLVDGVPSRFSGSGSGQDYSLTISSLEYEDMGIYYCLQYVEFPLTFGAGTKLELK
notes: also called mAb009-105F1E10
For B6, the Mean fluorescence intensity [2] was 6.6 MFI and the “Inhibition rate (%)” value [3] was -14%.

B7: 409D4E10 (mouse antibody purified from hybridoma) (antibody, V domains shown)
VH: QVQLQQSGAELVRPGASVTLSCKASGNTFTDYEMHWVKQTPVHGLEWIGATDPETDNTAYNQKFKGKAILTTDKSSSTAYMELRSLTSEDSAVYYCITSGWNDWGQGTSLTVSS
VL: DIKMTQSPSSMYASLGERVTITCKASQDINSYLSWFQQKPGKSPKTLIYRANRLLDGVPSRFSGSGSGQDYSLTISSLEYEDMGIYYCLQYNEFPYTFGGGTKLEIK
notes: also called mAb112-409D4E10
In the case of B7, the Mean fluorescence intensity [2] is reported as 11.5 MFI and the “Inhibition rate (%)” value [3] is reported as -21.4%.

B8: 409D4E10 mouse-human chimeric antibody (antibody, V domains shown)
VH: QVQLQQSGAELVRPGASVTLSCKASGNTFTDYEMHWVKQTPVHGLEWIGATDPETDNTAYNQKFKGKAILTTDKSSSTAYMELRSLTSEDSAVYYCITSGWNDWGQGTSLTVSS
VL: DIKMTQSPSSMYASLGERVTITCKASQDINSYLSWFQQKPGKSPKTLIYRANRLLDGVPSRFSGSGSGQDYSLTISSLEYEDMGIYYCLQYNEFPYTFGGGTKLEIK
notes: also called mAb112-409D4E10
Binder B8 has a Mean fluorescence intensity [1] of 8.96.

B9: 409B11E12 mouse-human chimeric antibody (antibody, V domains shown)
VH: QVQLQQSGAELVRPGASVTLSCKASGYTFTDYEMHWVKQTTVHGLEWIGATDPETSYSAYNQKFKGKAILTADKSSSTAYMELRSLTSEDSAVYYCIATGWNDWGQGTSLTVSS
VL: DLKMTQSPSSMYASLGERVTITCKASQDINSYLSWFQQKPGKSPKTLIYRANRLLDGVPSRFSGSGSGQDYSLTISSLEYEDMGIYYCLQYDEFPYTFGGGTKLEIK
notes: also called mAb104-409B11E12
In the case of B9, the Mean fluorescence intensity [1] is reported as 11.6.

B10: 409B11E12 (mouse antibody purified from hybridoma) (antibody, V domains shown)
VH: QVQLQQSGAELVRPGASVTLSCKASGYTFTDYEMHWVKQTTVHGLEWIGATDPETSYSAYNQKFKGKAILTADKSSSTAYMELRSLTSEDSAVYYCIATGWNDWGQGTSLTVSS
VL: DLKMTQSPSSMYASLGERVTITCKASQDINSYLSWFQQKPGKSPKTLIYRANRLLDGVPSRFSGSGSGQDYSLTISSLEYEDMGIYYCLQYDEFPYTFGGGTKLEIK
notes: also called mAb104-409B11E12
B10 was tested, and the Mean fluorescence intensity [2] was 8 MFI and the “Inhibition rate (%)” value [3] was -21.2%.
